Patent US20230243822A1, “MOLECULAR DISEASE PROFILE AND USE THEREOF FOR MONITORING AND TREATING RHEUMATAOID ARTHRITIS” (JANSSEN BIOTECH, INC., priority 2020, published 2023)

Tests used:
[1] = test system: 4-analyte M-DP panel (CRP, CXCL10, CXCL13, SAA); test: Pharmacodynamic M-DP score, 4-analyte panel CRP, CXCL10, CXCL13, SAA (SOMAscan), clinical studies in RA; assay type: in vivo, human; details: 4-analyte; for M-DP score mean difference ± SD, Good vs. No / M-DP score mean ± SD, DAS28-CRP response group Good / M-DP score mean ± SD, DAS28-CRP response group Moderate / M-DP score mean ± SD, DAS28-CRP response group No: response at week 24
From the text: Serum samples and data from eight interventional clinical studies with seven different active treatments for RA or placebo treatment were obtained and analyzed: sirukumab (anti-IL-6) and placebo treatments in SIRROUND-M (NCT01689532; Takeuchi T, et al. Arthritis Res Ther. 2018 Mar. 7; 20(1): 42), SIRROUND-D (NCT01604343; Takeuchi T, et al. Ann Rheum Dis. 2017 Dec.; 76(12): 2001-2008), and SIRROUND-T (NCT01606761; Aletaha D, et al. Lancet. 2017 Mar. 25; 389(10075): 1206-1217); sirukumab and adalimumab (anti-TNF-alpha) treatments in SIRROUND-H (NCT02019472; Taylor PC, et al. Ann Rheum Dis. 2018 May; 77(5): 658-666); golimumab (anti-TNF-alpha) treatment in GO-FURTHER (NCT00973479; Weinblatt ME, et al. Ann Rheum Dis. 2013 March; 72(3): 381-9); guselkumab (anti-IL-23p19), ustekinumab (anti-IL-12/IL-23p40), and placebo treatments in CNTO1275ARA2001 (NCT01645280; Cox JD, et al. […]); JNJ-40346527 (colony-stimulating factor-1 inhibitor) and placebo treatments in 40346527ARA2001 (NCT01597739; Genovese MC, et al. J Rheumatol. 2015 October; 42(10): 1752-60). Plasma samples were obtained from the RA-MAP TACERA study (Cope AP, et al. Nat Rev Rheumatol. 2018 January; 14(1): 53-60) before (baseline) and 6-months after initiation of conventional synthetic disease-modifying anti-rheumatic drugs (csDMARDs). Details of treatment dose groups, concomitant methotrexate use, and previous experience with csDMARDs and biologics are reported in Table 1. The studies were conducted in accordance with the Declaration of Helsinki. The study protocols were reviewed and approved by an independent ethics committee or institutional review board for each study center. Written informed consent was obtained from all patients before study entry. Additional study details and patient characteristics are available in the referenced publications for each study. For SIRROUND-D and SIRROUND-T studies, sets of serum samples from demographically-matched healthy controls were obtained from commercial sources (BioIVT, Westbury, N.Y.).
Serum samples from baseline (week 0) and the time points indicated in Table 1 were provided for quantification of 1189 serum analytes using the SomaScan v3.1 platform (SomaLogic, Boulder, Colo.; www.somalogic.com), with the exception of RA-MAP TACERA, for which plasma samples were analyzed for 1301 analytes using the SomaScan v3.2 platform. For some studies, a redacted dataset reporting data for a subset of the analytes was obtained. Relative fluorescence unit (RFU) data were sequentially normalized for hybridization controls (internal standards per samples), median signal across all samples (assumes same total protein concentration across sample set), and calibration controls (common sample standards across analysis plates). Samples failed quality control standards defined by Somalogic were excluded from analyses. The normalized RFU values were log2-transformed for subsequent analyses.
Changes in analyte expression levels were calculated for individual samples as the log2 transform of the ratio of the analyte level at the indicated time point (visit level) over the analyte level at baseline (baseline level) for a given subject, i.e., log 2(visit level/baseline level). Changes in RA disease-associated analytes per sample were summarized using a pharmacodynamic (PD) molecular disease profile (M-DP) score, defined as the median value of the log 2(visit level/baseline level) values for analytes in the defined M-DP analyte set. […] PD M-DP scores in the log 2(visit level/baseline level) scale can be transformed to percent change from baseline, using the transformation: (2^M-DP score−1)×100%.
In selecting the best minimal set of analytes that performs similarly to the full 14-analyte set, analyte sets that results in significant associations between DAS28-CRP EULAR good vs. no response with p<0.05 for each study were prioritized (Table 4). […]

RA patients = details: RA patients; cited from earlier work
[2] = SIRROUND-D, score at week 4, sirukumab SC 50 mg q4w
[3] = SIRROUND-D, score at week 4, sirukumab SC 100 mg q2w
[4] = SIRROUND-D, score at week 24, sirukumab SC 50 mg q4w
[5] = SIRROUND-D, score at week 24, sirukumab SC 100 mg q2w
[6] = SIRROUND-H, score at week 4, sirukumab SC 50 mg q4w or adalimumab SC 40 mg q2w
[7] = SIRROUND-M, score at week 4, sirukumab SC 50 mg q4w
[8] = SIRROUND-M, score at week 4, sirukumab SC 100 mg q2w
[9] = SIRROUND-T, score at week 4, sirukumab SC 50 mg q4w
[10] = SIRROUND-T, score at week 4, sirukumab SC 100 mg q2w
[11] = SIRROUND-T, score at week 24, sirukumab SC 50 mg q4w
[12] = SIRROUND-T, score at week 24, sirukumab SC 100 mg q2w

B1: Sirukumab (antibody, chains of the INN, looked up, V domains shown)
VH: EVQLVESGGGLVQPGGSLRLSCAASGFTFSPFAMSWVRQAPGKGLEWVAKISPGGSWTYYSDTVTGRFTISRDNAKNSLYLQMNSLRAEDTAVYYCARQLWGYYALDIWGQGTTVTVSS
VL: EIVLTQSPATLSLSPGERATLSCSASISVSYMYWYQQKPGQAPRLLIYDMSNLASGIPARFSGSGSGTDFTLTISSLEPEDFAVYYCMQWSGYPYTFGGGTKVEIK
notes: a human anti-interleukin-6 (IL-6) monoclonal antibody
For B1, the “M-DP score mean ± SD, All treated” value [1, 2] was −1.09 ± 0.80 log2 (fold/baseline), the “M-DP score mean difference ± SD, Good vs. No” value [1, 2] was −0.47 ± 0.79 (0.0012) log2 (fold/baseline) and the “M-DP score mean ± SD, DAS28-CRP response group Good” value [1, 2] was −1.26 ± 0.78 log2 (fold/baseline). For the same molecule, the “M-DP score mean ± SD, DAS28-CRP response group Moderate” value [1, 2] was −1.05 ± 0.76 log2 (fold/baseline), the “M-DP score mean ± SD, DAS28-CRP response group No” value [1, 2] was −0.79 ± 0.81 log2 (fold/baseline) and the “M-DP score mean ± SD, All treated” value [1, 3] was −1.21 ± 0.78 log2 (fold/baseline). For the same molecule, the “M-DP score mean difference ± SD, Good vs. No” value [1, 3] was −0.47 ± 0.76 (0.0041) log2 (fold/baseline), the “M-DP score mean ± SD, DAS28-CRP response group Good” value [1, 3] was −1.39 ± 0.75 log2 (fold/baseline) and the “M-DP score mean ± SD, DAS28-CRP response group Moderate” value [1, 3] was −1.01 ± 0.75 log2 (fold/baseline). For the same molecule, the “M-DP score mean ± SD, DAS28-CRP response group No” value [1, 3] was −0.92 ± 0.81 log2 (fold/baseline), the “M-DP score mean ± SD, All treated” value [1, 4] was −1.43 ± 0.82 log2 (fold/baseline) and the “M-DP score mean ± SD, DAS28-CRP response group Good” value [1, 4] was −1.50 ± 0.83 log2 (fold/baseline). The “M-DP score mean ± SD, DAS28-CRP response group Moderate” value [1, 4] was −1.46 ± 0.57 log2 (fold/baseline), the “M-DP score mean ± SD, DAS28-CRP response group No” value [1, 4] was 0.27 ± 0.00 log2 (fold/baseline) and the “M-DP score mean ± SD, All treated” value [1, 5] was −1.79 ± 0.78 log2 (fold/baseline). The “M-DP score mean ± SD, DAS28-CRP response group Good” value [1, 5] was −1.80 ± 0.80 log2 (fold/baseline), the “M-DP score mean ± SD, DAS28-CRP response group Moderate” value [1, 5] was −1.84 ± 0.95 log2 (fold/baseline) and the “M-DP score mean ± SD, DAS28-CRP response group No” value [1, 5] was −1.59 ± 0.19 log2 (fold/baseline). For the same molecule, the “M-DP score mean ± SD, All treated” value [1, 6] was −0.88 ± 0.69 log2 (fold/baseline), the “M-DP score mean difference ± SD, Good vs. No” value [1, 6] was −0.40 ± 0.59 (0.0549) log2 (fold/baseline) and the “M-DP score mean ± SD, DAS28-CRP response group Good” value [1, 6] was −0.92 ± 0.65 log2 (fold/baseline). For the same molecule, the “M-DP score mean ± SD, DAS28-CRP response group Moderate” value [1, 6] was −0.95 ± 0.74 log2 (fold/baseline), the “M-DP score mean ± SD, DAS28-CRP response group No” value [1, 6] was −0.52 ± 0.41 log2 (fold/baseline) and the “M-DP score mean ± SD, All treated” value [1, 7] was −1.69 ± 0.76 log2 (fold/baseline). For the same molecule, the “M-DP score mean difference ± SD, Good vs. No” value [1, 7] was −0.96 ± 0.66 (0.0010) log2 (fold/baseline), the “M-DP score mean ± SD, DAS28-CRP response group Good” value [1, 7] was −1.92 ± 0.63 log2 (fold/baseline) and the “M-DP score mean ± SD, DAS28-CRP response group Moderate” value [1, 7] was −1.34 ± 0.75 log2 (fold/baseline). The “M-DP score mean ± SD, DAS28-CRP response group No” value [1, 7] was −0.96 ± 0.85 log2 (fold/baseline), the “M-DP score mean ± SD, All treated” value [1, 8] was −1.87 ± 0.75 log2 (fold/baseline) and the “M-DP score mean ± SD, DAS28-CRP response group Good” value [1, 8] was −1.86 ± 0.69 log2 (fold/baseline). For the same molecule, the “M-DP score mean ± SD, DAS28-CRP response group Moderate” value [1, 8] was −1.99 ± 0.94 log2 (fold/baseline), the “M-DP score mean ± SD, DAS28-CRP response group No” value [1, 8] was −1.21 ± 0.43 log2 (fold/baseline) and the “M-DP score mean ± SD, All treated” value [1, 9] was −1.02 ± 0.84 log2 (fold/baseline). For the same molecule, the “M-DP score mean difference ± SD, Good vs. No” value [1, 9] was −0.39 ± 0.73 (0.0126) log2 (fold/baseline), the “M-DP score mean ± SD, DAS28-CRP response group Good” value [1, 9] was −0.91 ± 0.75 log2 (fold/baseline) and the “M-DP score mean ± SD, DAS28-CRP response group Moderate” value [1, 9] was −0.82 ± 0.79 log2 (fold/baseline). For the same molecule, the “M-DP score mean ± SD, DAS28-CRP response group No” value [1, 9] was −0.50 ± 0.70 log2 (fold/baseline), the “M-DP score mean ± SD, All treated” value [1, 10] was −0.79 ± 0.76 log2 (fold/baseline) and the “M-DP score mean difference ± SD, Good vs. No” value [1, 10] was −0.34 ± 0.81 (0.0416) log2 (fold/baseline). The “M-DP score mean ± SD, DAS28-CRP response group Good” value [1, 10] was −1.13 ± 0.80 log2 (fold/baseline), the “M-DP score mean ± SD, DAS28-CRP response group Moderate” value [1, 10] was −1.05 ± 0.93 log2 (fold/baseline) and the “M-DP score mean ± SD, DAS28-CRP response group No” value [1, 10] was −0.79 ± 0.83 log2 (fold/baseline). For the same molecule, the “M-DP score mean ± SD, All treated” value [1, 11] was −0.85 ± 0.81 log2 (fold/baseline), the “M-DP score mean difference ± SD, Good vs. No” value [1, 11] was −0.43 ± 0.79 (0.0167) log2 (fold/baseline) and the “M-DP score mean ± SD, DAS28-CRP response group Good” value [1, 11] was −0.98 ± 0.81 log2 (fold/baseline). The “M-DP score mean ± SD, DAS28-CRP response group Moderate” value [1, 11] was −0.88 ± 0.81 log2 (fold/baseline), the “M-DP score mean ± SD, DAS28-CRP response group No” value [1, 11] was −0.55 ± 0.76 log2 (fold/baseline) and the “M-DP score mean ± SD, All treated” value [1, 12] was −1.03 ± 0.83 log2 (fold/baseline). For the same molecule, the “M-DP score mean difference ± SD, Good vs. No” value [1, 12] was −0.44 ± 0.78 (0.0067) log2 (fold/baseline), the “M-DP score mean ± SD, DAS28-CRP response group Good” value [1, 12] was −1.18 ± 0.80 log2 (fold/baseline) and the “M-DP score mean ± SD, DAS28-CRP response group Moderate” value [1, 12] was −1.19 ± 0.90 log2 (fold/baseline). For the same molecule, the “M-DP score mean ± SD, DAS28-CRP response group No” value [1, 12] was −0.74 ± 0.75 log2 (fold/baseline) and the “clinical efficacy in the underlying clinical studies” value (RA patients) was “clinically efficacious”.
